Experimental data as given in US20190002886A1, “SIGNALING CENTERS OF ERYTHROID DIFFERENTIATION” (THE CHILDREN'S MEDICAL CENTER CORPORATION, priority 2017, published 2019).

Test system: human CD34+ cells
Assay: FACS analysis of erythroid markers CD71 and CD235a on differentiating CD34+ cells
Type: cell-based
Details: 25 ng/ml hrBMP4, treated for two days starting from D3 of differentiation
Description: To establish the role of BMP signaling in erythroid differentiation, differentiating CD34^+ cells were treated with human recombinant BMP4 (hrBMP4) to activate the pathway, or with dorsomorphin, a known inhibitor of BMP signaling. Knowing that erythroid lineage commitment occurs around D3, differentiating cells were treated for two days starting from D3, to test the effects of these signals on erythrocyte commitment. […] Human CD34+ cells, isolated from peripheral blood of granulocyte colony-stimulating factor-mobilized healthy volunteers, were obtained from the Fred Hutchinson Cancer Research Center. The cells were maintained and differentiated as previously described (Sankaran et al., 2008b; Trompouki et al.,2011). Control and treated stage-matched CD34 cells were washed in PBS and stained with propidium iodide (PI), 1:60 APC-conjugated CD235a (eBioscience, clone HIR2, 17-9987-42), 1:60 FITC-conjugated CD71 (eBioscience, OKT9, 11-0719-42), 1:60 PE-conjugated CD41a (eBioscience, HIP8, 12-0419-42) and 1:60 PE-conjugated CD11b (eBioscience, ICRF44, 12-0118-42). BD Bioscience LSR II flow cytometer was used to record raw FACS data, which were analyzed subsequently using FlowJo 8.6.9 10.0.7 (TreeStar). Human CD34^+ cells, isolated from peripheral blood of granulocyte colony-stimulating factor mobilized healthy volunteers, were purchased from the Fred Hutchinson Cancer Research Center. […]

B1: BMP4: human recombinant BMP4 (R&D) used to activate the BMP pathway (protein)
chain: MIPGNRMLMVVLLCQVLLGGASHASLIPETGKKKVAEIQGHAGGRRSGQSHELLRDFEATLLQMFGLRRRPQPSKSAVIPDYMRDLYRLQSGEEEEEQIHSTGLEYPERPASRANTVRSFHHEEHLENIPGTSENSAFRFLFNLSSIPENEVISSAELRLFREQVDQGPDWERGFHRINIYEVMKPPAEVVPGHLITRLLDTRLVHHNVTRWETFDVSPAVLRWTREKQPNYGLAIEVTHLHQTRTHQGQHVRISRSLPQGSGNWAQLRPLLVTFGHDGRGHALTRRRRAKRSPKHHSQRARKKNKNCRRHSLYVDFSDVGWNDWIVAPPGYQAFYCHGDCPFPLADHLNSTNHAIVQTLVNSVNSSIPKACCVPTELSAISMLYLDEYDKVVLKNYQEMVVEGCGCR
For B1, which “increase in erythroid cell counts (CD71 and CD235a)” value is on record?
The value was 1.5-2 fold.
